T1: human CD20 on HEK293/hCD20 cells (human, UniProt P11836 1-297)
T1 construct: whole, on cells; Used as a cell line negative for CD28 and CD22; also called negative cell line for CD28 and CD22
T1 sequence (looked up): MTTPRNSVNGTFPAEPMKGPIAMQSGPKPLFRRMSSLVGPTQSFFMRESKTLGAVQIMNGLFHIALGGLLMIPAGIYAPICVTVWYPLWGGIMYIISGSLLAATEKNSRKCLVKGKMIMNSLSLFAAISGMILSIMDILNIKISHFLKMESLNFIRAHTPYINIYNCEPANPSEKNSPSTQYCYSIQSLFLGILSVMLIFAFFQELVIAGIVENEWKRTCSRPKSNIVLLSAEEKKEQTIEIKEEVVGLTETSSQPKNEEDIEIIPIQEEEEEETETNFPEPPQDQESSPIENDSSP

T2: Monkey CD22.mmH (XP_005588899.1) (monkey (cyno))
T2 construct: also called REGN5280; mfCD22.mmH
T2 chain: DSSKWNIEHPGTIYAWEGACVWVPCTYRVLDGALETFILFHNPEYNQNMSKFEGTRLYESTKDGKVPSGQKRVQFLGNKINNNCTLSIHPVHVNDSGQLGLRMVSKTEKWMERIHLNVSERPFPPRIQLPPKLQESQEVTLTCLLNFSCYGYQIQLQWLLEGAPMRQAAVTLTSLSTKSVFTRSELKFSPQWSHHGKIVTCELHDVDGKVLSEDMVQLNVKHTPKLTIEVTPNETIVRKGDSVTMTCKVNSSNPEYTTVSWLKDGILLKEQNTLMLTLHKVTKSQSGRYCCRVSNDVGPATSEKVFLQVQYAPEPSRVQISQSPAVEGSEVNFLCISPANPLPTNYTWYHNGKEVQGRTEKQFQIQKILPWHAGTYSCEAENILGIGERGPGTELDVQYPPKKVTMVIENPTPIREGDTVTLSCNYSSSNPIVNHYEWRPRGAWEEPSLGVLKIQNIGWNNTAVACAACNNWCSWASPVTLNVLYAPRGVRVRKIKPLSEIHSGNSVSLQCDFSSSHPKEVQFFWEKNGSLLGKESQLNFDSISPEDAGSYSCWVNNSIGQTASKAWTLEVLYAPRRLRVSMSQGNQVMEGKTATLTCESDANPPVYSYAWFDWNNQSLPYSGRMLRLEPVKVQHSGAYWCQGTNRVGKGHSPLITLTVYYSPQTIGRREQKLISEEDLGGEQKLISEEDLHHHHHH

T3: Monkey CD22.mmH (EHH59463.1) (monkey (cyno))
T3 construct: also called REGN5281; mfCD22.mmH
T3 chain: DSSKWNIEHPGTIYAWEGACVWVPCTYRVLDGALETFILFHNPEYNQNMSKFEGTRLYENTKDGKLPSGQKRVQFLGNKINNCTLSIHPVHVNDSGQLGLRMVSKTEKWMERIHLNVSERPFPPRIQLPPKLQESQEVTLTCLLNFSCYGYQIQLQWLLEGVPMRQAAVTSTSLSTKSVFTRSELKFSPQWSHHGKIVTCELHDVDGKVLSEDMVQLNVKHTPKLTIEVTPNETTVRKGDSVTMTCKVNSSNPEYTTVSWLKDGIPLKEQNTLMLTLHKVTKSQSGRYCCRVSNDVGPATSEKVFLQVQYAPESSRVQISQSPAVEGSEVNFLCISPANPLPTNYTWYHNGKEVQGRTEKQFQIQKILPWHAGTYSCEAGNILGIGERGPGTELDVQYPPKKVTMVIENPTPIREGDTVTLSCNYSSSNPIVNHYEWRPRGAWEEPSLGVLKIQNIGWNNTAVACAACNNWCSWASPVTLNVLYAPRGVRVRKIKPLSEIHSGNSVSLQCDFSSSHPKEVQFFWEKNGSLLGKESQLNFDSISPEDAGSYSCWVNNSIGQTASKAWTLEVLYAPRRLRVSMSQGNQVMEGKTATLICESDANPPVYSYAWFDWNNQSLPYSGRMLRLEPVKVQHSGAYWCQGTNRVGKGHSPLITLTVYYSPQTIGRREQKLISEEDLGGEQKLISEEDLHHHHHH


How the values were obtained:
hCD22.mmH = biological target: T4, hCD22.mmH (human, UniProt P20273 20-687); test: SPR (Biacore), mAb captured by anti-human Fc, hCD22.mmH injected, 25°C
T4 construct: also called REGN5140; recombinant human CD22
Description: (§1) All of the binding kinetics experiments were performed at 25° C. Kinetic association (kₐ) and dissociation (kd) rate constants were determined by fitting the real-time sensorgrams to a 1:1 binding model using Scrubber 2.0c curve fitting software.

[1] = biological target: T1, human CD20 on HEK293/hCD20 cells; test: flow cytometry on HEK293/hCD20 cells (negative for CD22 and CD28), geometric mean MFI of APC
Description: (§2) Briefly, human CD4+ T-cells, HEK293/hCD20, HEK293/hCD20/hCD22 and Raji/CD80 and CD86 negative cells were resuspended in staining buffer containing D-PBS+2% FBS. […] A negative control sample was included containing no antibody. Cells were washed once with cold staining buffer and incubated for 30-45 minutes with Allophycocyanin (APC) labeled anti-human secondary antibody. After incubation, cells were washed once with cold D-PBS buffer without FBS and incubated with LIVE/DEAD Fixable Green Dead Cell Stain (Invitrogen) according to manufacturer's instructions to discriminate between live and dead cells. Cells were then fixed in BD Cytofix Buffer according to manufacturer's instructions, washed, re-suspended in staining buffer, and analyzed by flow cytometry on an iQue Screener flow cytometer. For EC₅₀ determinations, geometric mean fluorescence intensity (MFI) values were analyzed using a four parameter logistic equation over a 9-point response curve using GraphPad Prism. Fold binding was calculated using the following equation:

hCD28.mmH = biological target: T5, hCD28.mmH (human); test: SPR (Biacore T-200), mAb captured by anti-human Fc, hCD28.mmH injected, 25°C
T5 construct: also called human CD28 with a C-terminal myc.myc hexahistidine tag
Description: as §1

human CD22 on cells [2] = biological target: T6, human CD22 on cells (human, UniProt P20273 20-847); test: flow cytometry on Nalm6 cells (human CD22)
T6 construct: whole, on cells; also called hCD22; CD22 on Nalm6 cells
Description: (§3) Flow cytometric analysis was utilized to determine binding of CD22×CD28 bispecific antibodies to human CD22 expressing Nalm6 cells and human CD28 expressing Jurkat cells and to cynomolgus monkey T (CD28+) and B (CD22+) cells. […] After incubation, the cells were washed twice with cold PBS containing 1% filtered FBS and a PE-conjugated anti-human secondary antibody was added to the cells and incubated for an additional 30 minutes. An additional phenotyping antibody cocktail (anti-CD2, anti-CD20, anti-CD16, anti-CD14) was added to wells with cynomolgus monkey PBCMs. Wells containing no antibody or secondary only were used as a control.
(§4) After incubation with secondary antibody, cells were washed, re-suspended in 200 μL cold PBS containing 1% filtered FBS and analyzed by flow cytometry on a BD LSR_Fortessa. Cynomolgus monkey T cells were identified as CD2+/CD16− and B cells as CD20+. EC₅₀ values for FACS binding were calculated using 4-parameter non-linear regression analysis in Prism software.

human CD22 [3] = biological target: T7, human CD22 (human, UniProt P20273 20-847); test: flow cytometry on Raji/CD80 and CD86 negative cells
T7 construct: whole, on cells; also called hCD22
Description: as §2

human CD22 [4] = biological target: T7, human CD22; test: flow cytometry on HEK293/hCD20/hCD22 cells
Description: as §2

human CD22 on cells [5] = biological target: T6, human CD22 on cells; test: flow cytometry on HEK293/hCD20/hCD22 cells, geometric mean MFI of APC
Description: as §2

[6] = biological target: T2, Monkey CD22.mmH (XP_005588899.1); test: SPR (Biacore), mAb captured by anti-human Fc, monkey CD22.mmH (XP_005588899.1) injected, 25°C
Description: as §1

[7] = biological target: T3, Monkey CD22.mmH (EHH59463.1); test: SPR (Biacore), mAb captured by anti-human Fc, monkey CD22.mmH (EHH59463.1) injected, 25°C
Description: as §1

human CD28 on cells = biological target: T8, human CD28 on cells (human, UniProt P10747 19-220); test: flow cytometry on Jurkat cells (human CD28)
T8 construct: whole, on cells; also called CD28 on Jurkat cells; CD28 on human CD4+ T-cells
Description: as §3, §4

Binder	90 nM hCD22.mmH Bind (RU) (hCD22.mmH)	Kd (hCD22.mmH) [nM]	t½ (hCD22.mmH) [min]	binding result [1]	600 nM hCD28.mmH Bind (RU) (hCD28.mmH)	Kd (hCD28.mmH) [nM]	EC50 (human CD22 on cells [2]) [nM]	EC50 (human CD22 [3]) [nM]	EC50 (human CD22 [4]) [nM]	t1/2 (hCD28.mmH) [min]	binding result (human CD22 on cells [5])	t1/2 [6] [min]	Kd [7] [nM]	t1/2 [7] [min]	EC50 (human CD28 on cells) [nM]
REGN5837 (bispecific antibody, V domains shown, also called anti-CD22 x anti-CD28 bispecific antibody; CD22xCD28 mAb) VH 1: QVQLQESGPGLVKPSETLSLTCTVSGGSISSYYWSWIRQPPGKGLEWIGYIYYSGITHYNPSLKSRVTISVDTSKIQFSLKLSSVTAADTAVYYCARWGVRRDYYYYGMDVWGQGTTVTVSS VH 2: EVQLVQSGAEVKKPGESLKISCKGSGYNFATYWIAWVRQMPGKGLELMGIIYPGDSETTYNPSFQGQVTISADKSISNAYLQWSSLKASDTAMYYCARVGGYCSGTSCHNWFDPWGLGTLVTVSS VL: not shown	100	8.75	7.8	no binding (tested: 10^-7 M)	72.9	341	13	–	–	–	–	–	–	–	–
REGN5838 (bispecific antibody, V domains shown, also called anti-CD22 x anti-CD28 bispecific antibody; CD22xCD28) VH 1: QVQLQESGPGLVKPSETLSLTCTVSGGSISSYYWSWIRQPPGKGLEWIGYIYYSGITHYNPSLKSRVTISVDTSKIQFSLKLSSVTAADTAVYYCARWGVRRDYYYYGMDVWGQGTTVTVSS VH 2: EVQLVESGGGLVQPGGSLKLSCAASGFTFSGSDMHWVRQASGKGLEWVGRIRNQPNSYATAYAASVKGRFTISRDDSKNTAHLQMNSLKTEDTAVYFCTRQKQVVYNYHHYYGMDVWGQGTTVTVSS VL: not shown	–	–	–	–	–	–	–	14.9	11.4	–	–	–	–	–	–
REGN5705 (antibody, V domains shown, also called CD28 mAb; parental CD28 antibody) VH: QVQLQESGPGLVKPSETLSLTCTVSGGSISSYYWSWIRQPPGKGLEWIGYIYYSGITHYNPSLKSRVTISVDTSKIQFSLKLSSVTAADTAVYYCARWGVRRDYYYYGMDVWGQGTTVTVSS VL: not shown	–	–	–	no binding (tested: 10^-7 M)	88.4	–	–	–	–	2.4	no binding (tested: 10^-7 M)	–	–	–	–
H4sH33037P2 (antibody, V domains shown, Anti-CD22 bivalent parental monoclonal antibody; also called mAb33037P2; CD22 mAb) VH: EVQLVQSGAEVKKPGESLKISCKGSGYNFATYWIAWVRQMPGKGLELMGIIYPGDSETTYNPSFQGQVTISADKSISNAYLQWSSLKASDTAMYYCARVGGYCSGTSCHNWFDPWGLGTLVTVSS VL: not shown	193	–	7.8	–	–	–	–	–	–	–	–	4.3	35.6	4	–
REGN5838 (bispecific antibody, V domains shown, also called anti-CD22 x anti-CD28 bispecific antibody; CD22xCD28 mAb) VH 1: QVQLQESGPGLVKPSETLSLTCTVSGGSISSYYWSWIRQPPGKGLEWIGYIYYSGITHYNPSLKSRVTISVDTSKIQFSLKLSSVTAADTAVYYCARWGVRRDYYYYGMDVWGQGTTVTVSS VH 2: EVQLVESGGGLVQPGGSLKLSCAASGFTFSGSDMHWVRQASGKGLEWVGRIRNQPNSYATAYAASVKGRFTISRDDSKNTAHLQMNSLKTEDTAVYFCTRQKQVVYNYHHYYGMDVWGQGTTVTVSS VL: not shown	26.7	14.3	38.2	no binding (tested: 10^-7 M)	77	404	18	–	–	2.3	–	–	–	–	23
H4sH33041P2 (antibody, V domains shown, Anti-CD22 bivalent parental monoclonal antibody; also called mAb33041P2; CD22 mAb) VH: EVQLVESGGGLVQPGGSLKLSCAASGFTFSGSDMHWVRQASGKGLEWVGRIRNQPNSYATAYAASVKGRFTISRDDSKNTAHLQMNSLKTEDTAVYFCTRQKQVVYNYHHYYGMDVWGQGTTVTVSS VL: not shown	61.5	–	59.8	–	–	–	–	–	–	–	–	39.8	59.2	29.6	–
